Target: 55S mitochondrial ribosome from pig liver mitochondria (pig (endogenous in pig liver mitochondria))
Assay: Western blotting of purified ribosomes against a protein standard; amount of integrated ICT1 on purified pig 55S ribosomes estimated with purified ICT1 as a standard

stoichiometry N (ICT1 per 55S ribosome): 1
Substance: 55S-integrated ICT1 of the pig mitoribosome (mitochondrial ribosomal protein L58) (natural protein)

From article PMC4169044
